Measurements reported in the RNAGym collection of RNA variant scans (doi:10.1073/pnas.2313332121).

B1: TPR t1 (parent)
chain: GACCAAUCUGCCCUCAGAGCUCGAGAACAUCUUCGGAUGCAGAGGAGGCAGGCUUCGGUGGCGCGAUAGCGCCAACGUCCUCAACCUCCAAUGCAUCCCACCACAUGAUGAUGCCUGAAGAGCCUUGGUUUUUUG

Variants of: B1
Assay: polymerase ribozyme fitness, log enrichment relative to wild type (log ratio); higher = more active; in vitro selection for triplet polymerase activity
How it was run: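 Each subunit of a heterodimeric triplet polymerase ribozyme was represented by a PCR-built, transcribed mutant library that underwent triplicate single-round in vitro selection with frozen incubation at −7 °C. Extended constructs were recovered by gel excision, streptavidin-bead capture and RT-PCR, and Illumina sequencing of input and output libraries kept genotypes with ≥10 input reads and ≥1 read per output. Fitness is the logarithm of genotype enrichment relative to wild-type enrichment, from inverse-variance-weighted replicate averages, with a logarithm base of 2.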

Row | Variant | polymerase ribozyme fitness (log ratio)
1 | GACCAAUCUGCCCUCAGAGCUCGAGAACAUCUUCGGAUGCAGAGGAGGCAGGCUUCGGUGGCGCGAUAGCGCCAACGUCCUCAAUCUCCAAUGCAUCCCAACAAAUGAUGAUGCCUGAAGAGCCUUGGUUUUUUG | -3.57
2 | GACCAAUCUGCCCUCAGAGCUCGAGAACAUCUUCGGAUGCAGAGGAGGCAGGCUUCGGUGGCGCGAUAGCGCCAACGUCCUCAUCCUCCAAUGCAUCCCACCACAUGAUGAUGACUGAAGAGCCUUGGUUAUUUG | -0.993
3 | GACCAAUCUGCCCUCAGAGCUCGAGAACAUCUUCGGAUGCAGAGGAGGCAGGCUUCGGUGGCGCGAUAGCGCCAACGUCCUCAAUCUCCAAUGCUUCCCACCACAUGAUGAUGCAUGAACAGCCUUGGUUUUUUG | -0.474
4 | GACCAAUCUGCCCUCAGAGCUCGAGAACAUCUUCGGAUGCAGAGGAGGCAGGCUUCGGUGGCGCGAUAGCGCCAACGUCCUCAGCCUCCAAUGCAUCCCACCACAUGAGGAUGCCUGAAGAGCCUUGGUUUUUUG | -5.8
5 | GACCAAUCUGCCCUCAGAGCUCGAGAACAUCUUCGGAUGCAGAGGAGGCAGGCUUCGGUGGCGCGAUAGCGCCAACGUCCUCAAGCUCCAAUGCAUCCCACCACAUGAUGAUCACUGAAGAGCCUUGGUUUCUUG | -6.29
6 | GACCAAUCUGCCCUCAGAGCUCGAGAACAUCUUCGGAUGCAGAGGAGGCAGGCUUCGGUGGCGCGAUAGCGCCAACGUCCUCAAUCUCCAAUGCAUCCCACCACAUGAUGAUGCCAGAAGAGUCUUGGAUUUUUG | -5.12
7 | GACCAAUCUGCCCUCAGAGCUCGAGAACAUCUUCGGAUGCAGAGGAGGCAGGCUUCGGUGGCGCGAUAGCGCCAACGUCCUCAUCCUCCAAUGCAUCCCACUACAUGAUGAUGCCUGAAGAGUCUUGGUUUUUUG | -1.1
8 | GACCAAUCUGCCCUCAGAGCUCGAGAACAUCUUCGGAUGCAGAGGAGGCAGGCUUCGGUGGCGCGAUAGCGCCAACGUCCUCAAUCUCCAAUGCAUCCCACCACAUGAUGAUGGCUGAAGAGCCUUGGUUUUUUG | -3.53
9 | GACCAAUCUGCCCUCAGAGCUCGAGAACAUCUUCGGAUGCAGAGGAGGCAGGCUUCGGUGGCGCGAUAGCGCCAACGUCCUCAAGCUCCAAUGCAUCCCACCACAUGAUGAUGCCUGAAGAGACUUGGUUUUUUG | -0.897
10 | GACCAAUCUGCCCUCAGAGCUCGAGAACAUCUUCGGAUGCAGAGGAGGCAGGCUUCGGUGGCGCGAUAGCGCCAACGUCCUCAAUCUCCAAUGCAUCCCAGCACAUGAUGAUGCAUGAAGAGCCUUGGUUUUUUG | -2.93
11 | GACCAAUCUGCCCUCAGAGCUCGAGAACAUCUUCGGAUGCAGAGGAGGCAGGCUUCGGUGGCGCGAUAGCGCCAACGUCCUCAUCCUCCAAUGCAUCCCACCACAUGAUGAUGCCUGAAGAGCCUUGGUUGUUUG | -0.716
12 | GACCAAUCUGCCCUCAGAGCUCGAGAACAUCUUCGGAUGCAGAGGAGGCAGGCUUCGGUGGCGCGAUAGCGCCAACGUCCUCAAGCUCCAAUGCAUCCCACCACAUGAUGAUGCCUGAAGAGCCUUGGUUUUGUG | -2.39
13 | GACCAAUCUGCCCUCAGAGCUCGAGAACAUCUUCGGAUGCAGAGGAGGCAGGCUUCGGUGGCGCGAUAGCGCCAACGUCCUCAAUCUCCAAUGCAUACCACCACAUGAUGAUGCGUGAAGAGCCUUGGUUUUUUG | -5.83
14 | GACCAAUCUGCCCUCAGAGCUCGAGAACAUCUUCGGAUGCAGAGGAGGCAGGCUUCGGUGGCGCGAUAGCGCCAACGUCCUCAAUCUCCAAUGCAUCCCACCACAUGAUGAUGCCUGAAGAGCCUUGGUUUAUUG | -1.56
15 | GACCAAUCUGCCCUCAGAGCUCGAGAACAUCUUCGGAUGCAGAGGAGGCAGGCUUCGGUGGCGCGAUAGCGCCAACGUCCUCAUCCUACAAUGCAUCCCACCACAUGAUGAUGCCUGAAGAGCCUUGGUUUUUUG | -1.4
16 | GACCAAUCUGCCCUCAGAGCUCGAGAACAUCUUCGGAUGCAGAGGAGGCAGGCUUCGGUGGCGCGAUAGCGCCAACGUCCUCAGCCUCCAAUGCAUCCCACCACAUGAUGAUGCCUGAAGAGCCUUGGUGUUUUG | -1.3
17 | GACCAAUCUGCCCUCAGAGCUCGAGAACAUCUUCGGAUGCAGAGGAGGCAGGCUUCGGUGGCGCGAUAGCGCCAACGUCCUCAUCCUCCAAUGAAUCCCACCACAUGAUGAUGCAUGAAGAGCCUUGGUUUUUUG | -1.46
18 | GACCAAUCUGCCCUCAGAGCUCGAGAACAUCUUCGGAUGCAGAGGAGGCAGGCUUCGGUGGCGCGAUAGCGCCAACGUCCUCAAACUCCAAUGCAACCCACCACAUGAUGAUGCCUGAAGAGCCUUGGUUUUUUG | -2.43
19 | GACCAAUCUGCCCUCAGAGCUCGAGAACAUCUUCGGAUGCAGAGGAGGCAGGCUUCGGUGGCGCGAUAGCGCCAACGUCCUCAAACUCCAAUGCAUCCCACCACAUGAUGAUGCCUGAAGAGCCUUGCUUUUUUG | -4.07
20 | GACCAAUCUGCCCUCAGAGCUCGAGAACAUCUUCGGAUGCAGAGGAGGCAGGCUUCGGUGGCGCGAUAGCGCCAACGUCCUCAUCCUCCGAUGCAUCGCACCACAUGAAGAUGCCUGAAGUGCCUUGGUUUUUUG | -3.5
21 | GACCAAUCUGCCCUCAGAGCUCGAGAACAUCUUCGGAUGCAGAGGAGGCAGGCUUCGGUGGCGCGAUAGCGCCAACGUCCUCAGCCUCCAAUGCAUCCCACCACAUGAUGAUGCCUGAAGAGCCUUCGUUUUUUG | -2
